We go through one protein from ChEMBL document CHEMBL2074277, “Expression and localization of organic cation/carnitine transporter OCTN2 in Caco-2 cells” (Am J Physiol Gastrointest Liver Physiol, 2003).

Substrate in this data set: C[N+](C)(C)CC(O)CC(=O)[O-]
Kind of data set: TP_TRANSPORTER: uptake in Caco-2 cells. Type of data set: functional, cell-based.

B1: Organic cation/carnitine transporter 2 (Homo sapiens) (protein)
chain: MRDYDEVTAFLGEWGPFQRLIFFLLSASIIPNGFTGLSSVFLIATPEHRCRVPDAANLSSAWRNHTVPLRLRDGREVPHSCRRYRLATIANFSALGLEPGRDVDLGQLEQESCLDGWEFSQDVYLSTIVTEWNLVCEDDWKAPLTISLFFVGVLLGSFISGQLSDRFGRKNVLFVTMGMQTGFSFLQIFSKNFEMFVVLFVLVGMGQISNYVAAFVLGTEILGKSVRIIFSTLGVCIFYAFGYMVLPLFAYFIRDWRMLLVALTMPGVLCVALWWFIPESPRWLISQGRFEEAEVIIRKAAKANGIVVPSTIFDPSELQDLSSKKQQSHNILDLLRTWNIRMVTIMSIMLWMTISVGYFGLSLDTPNLHGDIFVNCFLSAMVEVPAYVLAWLLLQYLPRRYSMATALFLGGSVLLFMQLVPPDLYYLATVLVMVGKFGVTAAFSMVYVYTAELYPTVVRNMGVGVSSTASRLGSILSPYFVYLGAYDRFLPYILMGSLTILTAILTLFLPESFGTPLPDTIDQMLRVKGMKHRKTPSHTRMLKDGQERPTILKSTAF
For orientation: Km means the substrate concentration at which the rate is half of its maximum. Consider B1, for which the Km worked out at 14.1 µM.
